From patent US20160145598
Read-outs that look alike come from different tables or passages of the source.

What was measured:
thrombin [1] = system: thrombin
thrombin [2] = molecular target: thrombin; remark: listed apart in the source

Molecule: FX-WT (human factor X from an optimized nucleotide sequence, with C-terminal HPC4 tag)
- appearance of FXa after incubation with thrombin (Pefachrome FXa8595 hydrolysis at 405 nm) (thrombin [1]): the plasma and WT FXs being negative since they do not have a thrombin recognition site

B1: plasma factor X (protein)
chain 1: ANSFLEEMKKGHLERECMEETCSYEEAREVFEDSDKTNEFWNKYKDGDQCETSPCQNQGKCKDGLGEYTCTCLEGFEGKNCELFTRKLCSLDNGDCDQFCHEEQNSVVCSCARGYTLADNGKACIPTGPYPCGKQTLER
chain 2: SVAQATSSSGEAPDSITWKPYDAADLDPTENPFDLLDFNQTQPERGDNNLTRIVGGQECKDGECPWQALLINEENEGFCGGTILSEFYILTAAHCLYQAKRFKVRVGDRNTEQEEGGEAVHEVEVVIKHNRFTKETYDFDIAVLRLKTPITFRMNVAPACLPERDWAESTLMTQKTGIVSGFGRTHEKGRQSTRLKMLEVPYVDRNSCKLSSSFIITQNMFCAGYDTKQEDACQGDSGGPHVTRFKDTYFVTGIVSWGEGCARKGKYGIYTKVTAFLKWIDRSMKTRGLPKAKSHAPEVITSSPLK
- appearance of FXa after incubation with thrombin (Pefachrome FXa8595 hydrolysis at 405 nm) (thrombin [2]): the plasma and WT FXs being negative since they do not have a thrombin recognition site
